Experimental data taken from patent US20240132573A1.

What was measured:
Assay in all cases: cell-based or functional assay
Activated protein C = Activated protein C (UniProt P04070)
Human αFXIIa (Human) = Human αFXIIa (Human) (UniProt P00748)
Human βFXIIa (Human) = molecular target: T1, Human βFXIIa (Human) (UniProt P00748)
T1 sequence (looked up): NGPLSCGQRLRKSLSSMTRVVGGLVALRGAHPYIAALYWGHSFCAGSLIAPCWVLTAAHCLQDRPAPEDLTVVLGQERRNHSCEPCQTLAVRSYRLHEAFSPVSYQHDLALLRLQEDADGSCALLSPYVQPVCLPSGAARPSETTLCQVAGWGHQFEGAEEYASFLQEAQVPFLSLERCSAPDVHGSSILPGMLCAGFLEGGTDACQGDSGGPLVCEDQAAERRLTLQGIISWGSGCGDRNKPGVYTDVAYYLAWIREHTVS

Plasma kallikrein = Plasma kallikrein (UniProt P03952)
Plasmin = Plasmin (UniProt P00747)
Thrombin = Thrombin (UniProt P00734)

Chain of Plasma kallikrein (P03952 20-638 limits assumed): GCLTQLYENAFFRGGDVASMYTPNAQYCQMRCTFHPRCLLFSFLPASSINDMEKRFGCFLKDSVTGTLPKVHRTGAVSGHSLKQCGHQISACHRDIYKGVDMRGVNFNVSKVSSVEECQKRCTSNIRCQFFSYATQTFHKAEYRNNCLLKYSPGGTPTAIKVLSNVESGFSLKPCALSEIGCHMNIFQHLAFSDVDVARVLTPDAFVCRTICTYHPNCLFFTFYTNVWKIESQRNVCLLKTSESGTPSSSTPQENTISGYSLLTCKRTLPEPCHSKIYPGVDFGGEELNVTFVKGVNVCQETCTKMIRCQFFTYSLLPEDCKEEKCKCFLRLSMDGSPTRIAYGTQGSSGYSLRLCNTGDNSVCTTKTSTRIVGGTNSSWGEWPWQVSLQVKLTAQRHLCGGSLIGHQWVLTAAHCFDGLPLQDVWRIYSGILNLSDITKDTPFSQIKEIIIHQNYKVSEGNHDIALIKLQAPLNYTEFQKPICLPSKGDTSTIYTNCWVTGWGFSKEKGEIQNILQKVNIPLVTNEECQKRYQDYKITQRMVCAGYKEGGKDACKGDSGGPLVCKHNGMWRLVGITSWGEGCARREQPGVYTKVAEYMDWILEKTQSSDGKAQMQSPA
Chain of Plasmin (P00747 97-810 limits assumed): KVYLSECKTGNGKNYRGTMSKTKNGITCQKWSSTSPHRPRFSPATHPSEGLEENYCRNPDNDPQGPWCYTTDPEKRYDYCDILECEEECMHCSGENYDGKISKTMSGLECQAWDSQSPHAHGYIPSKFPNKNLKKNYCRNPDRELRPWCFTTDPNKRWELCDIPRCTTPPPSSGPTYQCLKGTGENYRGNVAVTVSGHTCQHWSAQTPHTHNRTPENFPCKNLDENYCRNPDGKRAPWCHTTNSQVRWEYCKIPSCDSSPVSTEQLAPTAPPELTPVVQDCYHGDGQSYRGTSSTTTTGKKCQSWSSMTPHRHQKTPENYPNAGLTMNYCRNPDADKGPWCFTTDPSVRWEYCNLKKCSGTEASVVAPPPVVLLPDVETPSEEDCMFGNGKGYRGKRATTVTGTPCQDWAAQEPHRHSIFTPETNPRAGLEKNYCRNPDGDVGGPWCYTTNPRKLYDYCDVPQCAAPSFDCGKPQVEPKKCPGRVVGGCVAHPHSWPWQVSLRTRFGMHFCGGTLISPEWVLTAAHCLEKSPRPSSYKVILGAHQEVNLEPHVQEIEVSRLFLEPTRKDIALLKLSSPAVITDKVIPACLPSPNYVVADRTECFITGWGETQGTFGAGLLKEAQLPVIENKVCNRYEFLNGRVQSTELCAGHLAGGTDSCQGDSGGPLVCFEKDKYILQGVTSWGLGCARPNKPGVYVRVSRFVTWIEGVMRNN
Chain of Activated protein C (P04070 43-461): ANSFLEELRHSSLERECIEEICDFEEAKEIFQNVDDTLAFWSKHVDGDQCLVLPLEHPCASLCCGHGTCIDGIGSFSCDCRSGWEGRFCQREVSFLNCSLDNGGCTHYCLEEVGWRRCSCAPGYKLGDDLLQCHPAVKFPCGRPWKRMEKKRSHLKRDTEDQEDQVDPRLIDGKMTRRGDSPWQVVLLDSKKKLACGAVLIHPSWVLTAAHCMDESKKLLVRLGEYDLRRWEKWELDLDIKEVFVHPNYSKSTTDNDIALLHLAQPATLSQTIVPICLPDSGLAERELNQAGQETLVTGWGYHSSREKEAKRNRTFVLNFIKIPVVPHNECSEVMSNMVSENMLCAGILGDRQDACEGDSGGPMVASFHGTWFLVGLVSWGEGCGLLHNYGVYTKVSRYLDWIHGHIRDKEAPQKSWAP
Chain of α1-Antitrypsin WT (P01009 25-418): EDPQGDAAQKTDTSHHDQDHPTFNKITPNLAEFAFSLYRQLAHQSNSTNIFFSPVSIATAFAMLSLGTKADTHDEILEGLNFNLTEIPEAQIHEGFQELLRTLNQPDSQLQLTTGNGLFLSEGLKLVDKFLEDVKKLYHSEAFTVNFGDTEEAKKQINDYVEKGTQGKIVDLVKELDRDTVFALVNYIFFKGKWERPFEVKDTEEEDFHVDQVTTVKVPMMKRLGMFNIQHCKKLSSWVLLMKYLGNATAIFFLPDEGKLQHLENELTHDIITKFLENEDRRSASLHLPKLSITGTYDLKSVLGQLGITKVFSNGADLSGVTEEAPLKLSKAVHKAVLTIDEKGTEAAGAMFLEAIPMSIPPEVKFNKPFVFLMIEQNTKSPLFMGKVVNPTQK

percentage inhibition, average (S2366 conversion) (Activated protein C) [%]	percentage inhibition, average (L2120 conversion) (Human αFXIIa (Human)) [%]	percentage inhibition, average (L2120 conversion) (Human βFXIIa (Human)) [%]	percentage inhibition, average (L2120 conversion) (Plasma kallikrein) [%]	percentage inhibition, average (I1390 conversion) (Plasmin) [%]	percentage inhibition, average (I1140 conversion) (Thrombin) [%]	Substance
0	0	0	0	0	0	α1-Antitrypsin WT (from UniProt P01009 25-418)
66.5	62.5	49	98	99	97.5	α1-Antitrypsin variant 357AR358 (from UniProt P01009 25-418)
94	94	90	91.5	100	100	α1-Antitrypsin variant M358R (from UniProt P01009 25-418)
10	17	15	94	0	3	α1-Antitrypsin variant SATRox* (from UniProt P01009 25-418)
1	–	7	50	7	0	α1-Antitrypsin variant SDYKox* (from UniProt P01009 25-418)
3	–	6	92	13	0	α1-Antitrypsin variant SEARox* (from UniProt P01009 25-418)
5	5	3	94	3	7	α1-Antitrypsin variant SFNRox* (from UniProt P01009 25-418)
1	–	5.2	71.6	1	0	α1-Antitrypsin variant SGNRox* (from UniProt P01009 25-418)
6.5	4.5	4	88	5	14.5	α1-Antitrypsin variant SGQRox* (from UniProt P01009 25-418)
0	–	22	97	37	7	α1-Antitrypsin variant SKGRox* (from UniProt P01009 25-418)
1	–	17.3	95.5	5.3	9.5	α1-Antitrypsin variant SLGRox* (from UniProt P01009 25-418)
9.7	–	41	97.7	94.7	62.3	α1-Antitrypsin variant SLLRox* (from UniProt P01009 25-418)
2.3	–	40.3	91.3	66.7	3.7	α1-Antitrypsin variant SLLRox*-I (from UniProt P01009 25-418)
3	–	47	97.5	68	4.5	α1-Antitrypsin variant SLLRox*-V (from UniProt P01009 25-418)
0	–	4	87	20	0	α1-Antitrypsin variant SMDRox* (from UniProt P01009 25-418)
34	–	18.3	96.3	73	10	α1-Antitrypsin variant SMHRox* (from UniProt P01009 25-418)
75	88.5	85	98.5	94	10.5	α1-Antitrypsin variant SMTR (from UniProt P01009 25-418)
76.5	92.5	89.2	98.7	94.5	10.3	α1-Antitrypsin variant SMTRox* (from UniProt P01009 25-418)
3	–	9	39	20	3	α1-Antitrypsin variant SMTRox*-GVGG (from UniProt P01009 25-418)
0	–	29	47	8	1	α1-Antitrypsin variant SMTRox*-VVGG (from UniProt P01009 25-418)
7	–	20	97	0	62	α1-Antitrypsin variant SNSRox* (from UniProt P01009 25-418)
1	1	2	97	19	0	α1-Antitrypsin variant SPRRox* (from UniProt P01009 25-418)
4	2	0	91	97	1	α1-Antitrypsin variant SVRKox* (from UniProt P01009 25-418)
49	47	39	99	97	7	α1-Antitrypsin variant SVTRox* (from UniProt P01009 25-418)
8	4	2	55	95	6	α1-Antitrypsin variant SVVKox* (from UniProt P01009 25-418)
0	–	5	94	47	0	α1-Antitrypsin variant SWKKox* (from UniProt P01009 25-418)
7	–	20	97	0	62	α1-Antitrypsin variant SYARox* (from UniProt P01009 25-418)
